Assay results taken from patent US20180072786A1.
Ends that are not written are not given here.

Target: mixture of biotinylated D-enantiomeric Aβ1-42 oligomers and fibrils (UniProt P05067)
Experiment: monoclonal phage ELISA, A450; signal on immobilized oligomers/fibrils (normalized by the 6E10 control) against signal on monomers set to 100%

Chain of mixture of biotinylated D-enantiomeric Aβ1-42 oligomers and fibrils (P05067 672-713 limits assumed, form in doubt): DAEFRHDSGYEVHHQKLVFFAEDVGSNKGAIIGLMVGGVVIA

Binder: HFWSWTSLSMTR (peptide, not shown: large carriers, not fully specified) [individual phage clone 6.227 (Mosd8)]
- Difference in signal strength between Aβ1-42 monomers (100%) and Aβ1-42 oligomers and fibrils: 68.6%

Binder: DWSSRVYRDPQT (peptide, not shown: large carriers, not fully specified) [individual phage clone 6.139 (Mosd16)]
- Difference in signal strength between Aβ1-42 monomers (100%) and Aβ1-42 oligomers and fibrils: 52.4%

Binder: HLSWYWEKYLTS (peptide, not shown: large carriers, not fully specified) [individual phage clone 6.239 (Mosd9)]
- Difference in signal strength between Aβ1-42 monomers (100%) and Aβ1-42 oligomers and fibrils: 68%

Binder: DRSKGDHRITQM (peptide, not shown: large carriers, not fully specified) [individual phage clone 6.257 (Mosd18)]
- Difference in signal strength between Aβ1-42 monomers (100%) and Aβ1-42 oligomers and fibrils: 49.2%

Binder: ERSQWGHRDPQS (peptide, not shown: large carriers, not fully specified) [individual phage clone 6.240 (Mosd17)]
- Difference in signal strength between Aβ1-42 monomers (100%) and Aβ1-42 oligomers and fibrils: 54.5%

Binder: HNWFYWTTEPYD (peptide, not shown: large carriers, not fully specified) [individual phage clone 5.81 (Mosd4)]
- Difference in signal strength between Aβ1-42 monomers (100%) and Aβ1-42 oligomers and fibrils: 69.2%

Binder: EHWDFGQWWQQS (peptide, not shown: large carriers, not fully specified) [individual phage clone 6.197 (Mosd14)]
- Difference in signal strength between Aβ1-42 monomers (100%) and Aβ1-42 oligomers and fibrils: 56.5%

Binder: VHWDFRQWWQQS (peptide, not shown: large carriers, not fully specified) [individual phage clone 6.141 (Mosd12)]
- Difference in signal strength between Aβ1-42 monomers (100%) and Aβ1-42 oligomers and fibrils: 59%

Binder: HTWTTYDYVWRL (peptide, not shown: large carriers, not fully specified) [individual phage clone 5.80 (Mosd2)]
- Difference in signal strength between Aβ1-42 monomers (100%) and Aβ1-42 oligomers and fibrils: 67.1%

Binder: LSMNITTVHRWH (peptide, not shown: large carriers, not fully specified) [individual phage clone 6.245 (Mosd11)]
- Difference in signal strength between Aβ1-42 monomers (100%) and Aβ1-42 oligomers and fibrils: 57.7%

Binder: FSHSHHTWFTWN (peptide, not shown: large carriers, not fully specified) [individual phage clone 6.247 (Mosd7)]
- Difference in signal strength between Aβ1-42 monomers (100%) and Aβ1-42 oligomers and fibrils: 58%

Binder: GTMLKFSGMNLT (peptide, not shown: large carriers, not fully specified) [individual phage clone 5.57 (Mosd3)]
- Difference in signal strength between Aβ1-42 monomers (100%) and Aβ1-42 oligomers and fibrils: 60%

Binder: FSWSMVMPWPTA (peptide, not shown: large carriers, not fully specified) [individual phage clone 6.135 (Mosd21)]
- Difference in signal strength between Aβ1-42 monomers (100%) and Aβ1-42 oligomers and fibrils: 46%

Binder: GQWDFRQWWQPC (peptide, not shown: large carriers, not fully specified) [individual phage clone 6.255 (Mosd15)]
- Difference in signal strength between Aβ1-42 monomers (100%) and Aβ1-42 oligomers and fibrils: 60%

Binder: HNWSWEWWYNPN (peptide, not shown: large carriers, not fully specified) [individual phage clone 6.216 (Mosd5)]
- Difference in signal strength between Aβ1-42 monomers (100%) and Aβ1-42 oligomers and fibrils: 62.7%

Binder: STLHFYTAFLNK (peptide, not shown: large carriers, not fully specified) [individual phage clone 6.249 (Mosd6)]
- Difference in signal strength between Aβ1-42 monomers (100%) and Aβ1-42 oligomers and fibrils: 68%

Binder: YSFHFEMNMGNY (peptide, not shown: large carriers, not fully specified) [individual phage clone 6.113 (Mosd13)]
- Difference in signal strength between Aβ1-42 monomers (100%) and Aβ1-42 oligomers and fibrils: 57.2%

Binder: VHWDFRQWWQPS (peptide, not shown: large carriers, not fully specified) [individual phage clone 6.167 (Mosd20)]
- Difference in signal strength between Aβ1-42 monomers (100%) and Aβ1-42 oligomers and fibrils: 45.7%

Binder: DLRFSSLWKLSH (peptide, not shown: large carriers, not fully specified) [individual phage clone 6.190 (Mosd19)]
- Difference in signal strength between Aβ1-42 monomers (100%) and Aβ1-42 oligomers and fibrils: 50.3%

Binder: YSYLTSYHMVWR (peptide, not shown: large carriers, not fully specified) [individual phage clone 5.60, which contains the peptide sequence of Mosd1]
- Difference in signal strength between Aβ1-42 monomers (100%) and Aβ1-42 oligomers and fibrils: 72%

Binder: HTWTHWFSWNVP (peptide, not shown: large carriers, not fully specified) [individual phage clone 6.242 (Mosd10)]
- Difference in signal strength between Aβ1-42 monomers (100%) and Aβ1-42 oligomers and fibrils: 71.9%
